Test: yeast display, Sf9 membrane polyspecificity reagent, FACS + sequencing; frameworks hold sequencing errors
Summary of the method: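 Sorting gates, low and high (top ~1%), were placed on anti-HA fluorescence to track expression and on streptavidin fluorescence to track reagent binding. A clone's polyreactivity label is taken from the gate it came out of. The reagent was 10% biotinylated, detergent-solubilized Sf9 membrane, applied for 1 hour at 4 °C to galactose-induced yeast display cells.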

Sequence	polyreactivity (PSR sort gate)
QVQLVESGGGLLQAGGSLRLSCAASGRIFTWNAMGWYRQAPGKERELVARISSGTPTNYADSLKGRFTISRDNAKNTVYLQMNCLKPEDTAVYYCAAQSRPPFVKQYWWQRDYWGQATQVTVSS	high polyreactivity
QVQLVESGGGLLQAGGSLRLSCAASGRIFVNYAMGWYRQAPGKERELVAVISRSGGGTNYADSVKGRFTISRDNAKNTVYLQMNSLKQEDTAVYYCAADSYYYPYDYWGQGTQVTVSS	high polyreactivity
QVQLVESGGGLLQAGGSLRLSCAASGRIIGWYAMGWYRPAPGKERELVAAISRGGTRTNYADSVKGRFTISRDNAKNTVYLQMNSLKPEDTAVYSCAAGGSWCQNGYWGQGTQVTVSS	high polyreactivity
QVQLVESGGGLLQAGGSLRLSCAASGRTFGFYTMGWYRQAPGKERELVAGISRGGSTTYADSVKGRFTISRDNAKKTVYVEMNSLKQEDTAVYYSNADRSHYWLPYGVRFDYWGLGTQVTVSS	low polyreactivity
QVQLVESGGGLLQAGGSLRLSCAASGRTFHTYAMGWYRHAPGKERELVAAISRSGGSTYYADSVKGRFTISRDNAMNPVYLQMNSLKPEDTAVYYCADTAGYWGQGTQVTVSS	high polyreactivity
QVQLVESGGGLLQAGGSLRLSCAASGRTFKYYAMGWYRQAPGKERELVAAISHSGGSTYYADSVKGRFTISRDNAKNTVYLQMNSLKPEDTAVYYCAADHGDGNYPYYYWGQGTQVTVSS	high polyreactivity
QVQLVESGGGLLQAGGSLRLSCAASGRTFYQYAMGWYRKAPGKDRELVAAITTSGRSTYYADSVKGRITISRDNAKNTVYLQMNRLKPEDTAVYYCNKDLSSTIFDYWGQGTQVTVSS	low polyreactivity
QVQLVESGGGLLQAGGSLRLSCAASGRTIDVYAMGWYTQAPGKERELVAAISWSGGGTYYADSVKGRFTISRDNAKNTVYFQMHSLKAEDTAVYYCAAALTFALDPNRYTYSDYYYWGQGTQVTVSS	low polyreactivity
QVQLVESGGGLLQAGGSLRLSCAASGRTLWIYAMGWYRQAPGKERELVASITTRGGSTYYADSVKGRFTISRDNAKNTVYLQMNSLKPEDTAVYYCARVSGARYTSYDYWGQGTQVTVSS	high polyreactivity
QVQLVESGGGLLQAGGSLRLSCAASGSIFNKYAMGWYRQATGKEREFVAAITQGGGRTYYADSEKVRFTISRDNAKNTDYLQMNILKPEDTAVYYCNYNFNYPYYRYGYWGQGTQVTVSS	high polyreactivity
QVQLVESGGGLLQAGGSLRLSCAASGSIFNYSAMGWYRQAPGTERELVATISSGGNTKYADSVKGRFTISRDNAKNTVYLQMNSLKPEDTAVYYCAARWQHSGYRDRYWYDYWGQGTQVTVSS	low polyreactivity
QVQLVESGGGLLQAGGSLRLSCAASGSIFQYNAMGWYRQAPGKERELVAAINGGGSTYYADSVKGRFTISRDNAKNTVYLQMNSLKPEDTAVYYCAADGGAYSYRGPGKFGIEDSWGQGTQVTVSS	low polyreactivity
QVQLVESGGGLLQAGGSLRLSCAASGSIFRRNAMGWYRQAPGTERELVACISGGGSTYYADSVKGRFTKSRDNAKNNVYLQLNSLNPEDTAVYYCATDKHYRWAVFDYWGQGTQVTVSS	low polyreactivity
QVQLVESGGGLLQAGGSLRLSCAASGSIFSRYAMGWYRQAPGKERELVAAISKSGTRTYYADSVKGRFTISRDNAKNTVYLQMNSLKPEDTAVYYCNADSEISWYYPYEYWGQGTQVTVSS	high polyreactivity
QVQLVESGGGLLQAGGSLRLSCAASGSTFPPYAMGWYRQAPGKERELVAAIDWSDGTTYYADSVKGRFTISRDNAKNTVYLQMNSLKPEDTAVYYCAASLSQSEYDYWGQGTQVTVSS	low polyreactivity
QVQLVESGGGLLQAGGSLRLSCAASGSTFRIYAMGWYRQAPGKERELVAAIRRRGASTYYADSVKGRFTISRDNAKNTVYLQMNSLKQEDTAVYYCAASYLWDRVPGRGIHDYWGQGTQVTVSS	high polyreactivity
QVQLVESGGGLLQAGGSLRLSCAASGSTISRYAMGWYRQAPGKERELVAAIRRNGDGTYYADSVKGRFTISRDNAKNTVYVQMNSLKPEDTAVYYCAARRFIPRFNYWGQGTQVTVSS	high polyreactivity
QVQLVESGGGLLQAGGSLRLSCAASGTIFKYYAMGWYRQAPGKERELVAAISRSGSNTYYADSVKGRFRISRDNAKNTVYLQMNTLKPEDTAVYYFAARARRYIYTFDSWGQGTQVTVSS	high polyreactivity
QVQLVESGGGLLQAGGSLRLSCAASRSTFFWYAMGWYRQAPGKERELVAANSKTGGSTYYADSVKGRFTISRDNAKNTVYLQMNSLKPEDTAVYYCARDYSWYYYGSQLFAHDYWGQGTQVTVSS	low polyreactivity
QVQLVESGGGLLQAGGSLRLSCAASVRIFYGYAMGWYRPAPGKERELVAAIDSVGDTYYADSVKGRFTISRDNAKNTVYLQMNSLNPEDTAVYYCAADRTGGIVLSPTDEMDYWGQGTQVTVSS	low polyreactivity
QVQLVESGGGLLQAGGSLRLSCAASVRIFYGYAMGWYRQAPGKERELVAAIDSVGDKYYADSVKGRFTISRDNAKNTVYLQMNSLNPEDTAVYSCAADRTGRIVLSPTDEMDYWGQGTQVSVSS	low polyreactivity
QVQLVESGGGLLQAGGSLRLSCADSGSTFLYKAMGCYIQAPGKEREFVAAISGSGGTTYYADSVKGRFTISRDNAKNTVYLQMNSLKPEDTAVYYCAVSQSWYWYYASDYWGQGTQVTVSS	low polyreactivity
QVQLVESGGGLLQAGGSLRLSCASSGRTFLVNAMGWYRQAPGKERELVAVITRVGSTNYADSVKGRFTISRDNAKNTVYLQMYSLKPEDTAVYYCAKQFSPYRSYGPVVRYDYWGQGTQLTVSS	low polyreactivity
QVQLVESGGGLLQAGGSLRLSCDASGRIFGPNARGWYRQAPGKERELVDSISYSGGYTYYADSVKGRFTISRDNAKITFYLQMLSLIPVDTAVYYCAKGGYWSGYNYWGHGTQVTVSS	low polyreactivity
QVQLVESGGGLLQAGGSLRLSSAASGFIFTKYNMGWYRQAPGKERELVDAIDTGGNTYADSVKGRFTISRDNAKNTVYLQMNSLKPEDTAVYYCSVDGGEFSSYGYWGQGTQVTVSS	low polyreactivity
QVQLVESGGGLLQAGGSLRLSSAASGGTFPKYTKGWYRPAPGKEWELVAAITSRGGTYYADSVKGRFTISRDNAKNSVYLQMNSLKPEDTAVYYCAAEYSYSSYLWYDYWGQGTQVTVSS	high polyreactivity
QVQLVESGGGLLQAGGSLRLSSAASGRTFPRYAMGWYRQAPGKERELVAAISVRAGITYYADSVKGRFTISRDNAKNTVYLQMNSLKPEDTAVYYCAKDHWTTSYDEGDYWGQGTQVTVSS	low polyreactivity
QVQLVESGGGLLQAGGSLSLSCAASGGTFRYYTMGWYRQAPGKERELVASISGGGRTYYADSVKGRFTISRDNAKNTVYLQMNSLKPEDTAVYYCATYTRTFGYWGYGYWGQGTQVTVSS	high polyreactivity
QVQLVESGGGLLQAGGSLSLSCAASGLILANYAMGWYRQAPGKERELVAAISSSGGSTYYADSVKGRFTISRDNAKNTVYLQMNSLKPEDTAVYYCAAYPLYRRRWTGDYWGQGTQVTVSS	high polyreactivity
QVQLVESGGGLLQAGGSLSLSCAASGSIFVTNAMGWYRQAPGKERELVAAISVSGGSTYYADSVKGRFTISRDNAKYTVYLQMNSLKPEDTAVYYCNTVRSPPGHDYWGQGTQVTLSS	low polyreactivity

Reference: the nanobody polyreactivity screen of Harvey et al. (2022)
